Article PMC3099546

Substrate: CCCCC/C=C\C\C=C/C=C/C=C/[C@@H](SC[C@H](NC(=O)CC[C@H](N)C(=O)O)C(=O)NCC(=O)O)[C@@H](O)CCCC(=O)O
Experiment: purified protein

B1: gamma-glutamyl leukotrienase (GGT5) (Homo sapiens) (protein)
chain 1: SRHQAPCGPQAFAHAAVAADSKVCSDIGRAILQQQGSPVDATIAALVCTSVVNPQSMGLGGGVIFTIYNVTTGKVEVINARETVPASHAPSLLDQCAQALPLGTGAQWIGVPGELRGYAEAHRRHGRLPWAQLFQPTIALLRGGHVVAPVLSRFLHNSILRPSLQASTLRQLFFNGTEPLRPQDPLPWPALATTLETVATEGVEVFYTGRLGQMLVEDIAKEGSQLTLQDLAKFQPEVVDALEVPLGDYTLYSPPPPAGGAILSFILNVLRGFNFSTESMARPEGRVNVYHHLVETLKFAKGQRWRLGDPRSHPKLQNASRDLLGETLAQLIRQQIDGRGDHQLSHYSLAEAWGHGTG
chain 2: TSHVSVLGEDGSAVAATSTINTPFGAMVYSPRTGIILNNELLDLCERCPRGSGTTPSPVSGDRVGGAPGRCWPPVPGERSPSSMVPSILINKAQGSKLVIGGAGGELIISAVAQAIMSKLWLGFDLRAAIAAPILHVNSKGCVEYEPNFSQEVQRGLQDRGQNQTQRPFFLNVVQAVSQEGACVYAVSDLRKSGEAAGY
- Km: 10.2 ± 0.1 µM
- kcat: 3.33 s⁻¹
- kcat/Km: 317000 M⁻¹ s⁻¹
